Results from PMC10626418.
Non-standard residues stand in square brackets, D forms with d. Groups on a side chain read outwards from the residue. Primed or numbered codes have the meaning given here. No end group written: not given here. *: point of attachment. Biotin = O=C1N[C@H]2[C@H](CS[C@H]2CCCCC(=O)*)N1; PEG2′ = not defined here

Target: I-E^k (murine MHC class II molecule, surface-resident on BMDCs and B-cells) (mouse (endogenous in BMDCs and B-cells of B10.A mice))
Assay: flow cytometry on cells; B-cells and BMDCs pulsed with 25 and 50 uM MCC-PEG2-biotin for up to 36 h (with LPS), stained with saturating mSav-AF647 or 14.4.4 scFV-AF647 (10 ug/ml); ratio of the MFIs

ANERADLIAYLKQATK[dS][dS][dC]([maleimide-PEG2′-Biotin]) [C-terminally biotinylated MCC peptide 88-103 derivative (MCC-PEG2-biotin)]
proportion of surface-resident I-E^k loaded with the peptide: < 17%
